Consider 133 substances from the supplement of paper PMC12042874.

± gives the uncertainty stated by the source.

This data set can be described thus: amyloid nucleation score (Sup35N fusion, yeast selection) (log enrichment); library NNK3; higher = more nucleation; inactive = no reads after selection. Put shortly:
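Nucleation score is defined as the DiMSum log enrichment of output over input reads, with centring on the mode score of non-aggregating sequences. A minimum of 100 input reads was required for each sequence. Reads came from Illumina sequencing of plasmid inserts from psi-negative yeast expressing Sup35N fused to peptides of 20 random codons, induced with 100 μM copper sulfate for 24 hours and grown 7 days at 30°C on medium lacking adenine and uracil.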
In the case of LLLVWRLKVSGGLDSNRTGV, the amyloid nucleation score amounted to 1.05 ± 0.13.
Consider LLMGSSSSV, for which the amyloid nucleation score entry is “inactive”.
As to LLRGLAIGKKDYIYSLLLLH, the amyloid nucleation score was -0.619 ± 1.4.
As for LLRHDLYRVCTNRV, the amyloid nucleation score entry was “inactive”.
With LLRVCVSFRCIVNSCMRR the entry was “inactive”.
As for LLSLFFIHPTATRRTKVSRC, the amyloid nucleation score entry was “inactive”.
Take LLSPQFRRIGSFRWKFAPRF: the amyloid nucleation score result is “inactive”.
Turning to LLYFSVLRSEL, the amyloid nucleation score entry was “inactive”.
In turn, LLYYSSINYFLLLGFCSEEL showed an amyloid nucleation score of 1.51 ± 0.065.
On to LMAVHMGMCMHEILHAVSLR, for which the amyloid nucleation score entry is “inactive”.
Regarding LMETSSRYTFYMKGLHRTMS, the amyloid nucleation score came to 0.428 ± 0.27.
As for LMGVDSLLYRKHSGV, the amyloid nucleation score result is “inactive”.
As for LMIISGCSHMSHSVRSTRGL, the amyloid nucleation score was -0.217 ± 0.58.
As to LMIMSKVSKSP, the amyloid nucleation score was found to be 0.465 ± 0.25.
Substance LMLMVCVN came in with an amyloid nucleation score of -0.601 ± 0.74.
Regarding LMNEKNPSQDNRFRIVRALS, the amyloid nucleation score result was “inactive”.
Turning to LMNEY, the amyloid nucleation score entry was “inactive”.
With LMPRTEI the entry was “inactive”; with LMSYSRFGCSDSYLNVDSSA, “inactive”.
Regarding LNAMWAWSRLDCNWGIQRNR, the amyloid nucleation score entry is “inactive”.
For LNCDIVFELL, the amyloid nucleation score entry was “inactive”.
In the case of LNFCDRTIEICRLEY, the amyloid nucleation score entry was “inactive”.
The same measure for LNGSAHYRGCCLKRRTICWM: “inactive”; for LNLGHDGYPNTSARVFHFC: “inactive”.
Turning to LNMLKVLFSWIRYDGNQ, the amyloid nucleation score result is “inactive”.
In the case of LNPPNKYDLDVFWVMVSYKK, the amyloid nucleation score entry was “inactive”.
The same measure for LNRDGVISMFFSFCGGTRPR: -0.452 ± 0.93; for LNTGLLLLCG: “inactive”.
As to LNTKEYLLYKRICTSNANLL, the amyloid nucleation score is -0.621 ± 1.1.
As for LNVRSI, the amyloid nucleation score result was “inactive”.
For the substance LNVYNWKN, the amyloid nucleation score entry is “inactive”.
Regarding LNYNF, the amyloid nucleation score result is “inactive”.
Turning to LPALEQNVLHLVMVIY, the amyloid nucleation score result is “inactive”.
Take LPGCVSEFG: the amyloid nucleation score result is “inactive”.
With LPIKMGMLLSICDLLG, the amyloid nucleation score entry was “inactive”.
The same measure for LPRTYRKALVPNVVVFSYLT: “inactive”; for LPVVFLCRYDSI: “inactive”; for LPYQIIWRCCAMVNFDFLVL: “inactive”.
As to LPYYCSIDAVMCREPTGLGS, the amyloid nucleation score result was “inactive”.
For the substance LQAQMYCLTTLWSWFGRVSR, the amyloid nucleation score entry is “inactive”.
Regarding LQAYAMGNYRGDKK, the amyloid nucleation score result was “inactive”.
With LQFVMLRTWVLRSRGTQAVT, the amyloid nucleation score worked out at 0.592 ± 0.21.
For the substance LQKIKCSQADYWREMTVRDR, the amyloid nucleation score amounted to 1.01 ± 0.16.
Take LQLWVSFSSVKLCYCISHSF: the amyloid nucleation score result was “inactive”.
With LQVLFSYYFENRSGDLVRDD the figure was 0.641 ± 0.14; with LQYRSL, “inactive”; with LRAKTRHSVLNCDRIVEPGG, 1.49 ± 0.13.
As to LRCWYFLNMMMPYPPPSIKW, the amyloid nucleation score entry was “inactive”.
On to LRGGKVMITRFVSCSI, for which the amyloid nucleation score result is “inactive”.
Turning to LRGSRYFWDWAPSYYFVHLR, the amyloid nucleation score result is “inactive”.
With LRGSYNVS the entry was “inactive”.
LRKRELCGIPSINAAPGLLG: the amyloid nucleation score result was “inactive”.
With LRLNLMSILKVEYRCSMITW the entry was “inactive”; with LRLSGVMHRTFYCVVSGHGR, “inactive”; with LRMFNGSEAIYFMLVQSLFR, “inactive”.
The same measure for LRNIMGECDSAWKDVMVGVA: “inactive”.
LRNLVTWRVQSKWFSIQSSW: the amyloid nucleation score result was “inactive”.
For LRNVYTRVEITQLLTRTSGS, the amyloid nucleation score entry is “inactive”.
The substance LRRRVKSFSELYLAVTRVML had an amyloid nucleation score of 0.286 ± 0.43.
LRRSVSIGDPGASLIKTSFA: the amyloid nucleation score result is “inactive”.
LRRYVARNRRSYFTESLPRA: the amyloid nucleation score is -0.123 ± 1.4.
As to LRSVLSVGGEMAYINCNQLL, the amyloid nucleation score entry is “inactive”.
With LRSWNMLPRWVGRYWIFGGK, the amyloid nucleation score entry was “inactive”.
On to LRTAEDFETS, for which the amyloid nucleation score is -0.416 ± 1.5.
The substance LRTFKITFRGTVKTRRSLTN registered an amyloid nucleation score of 0.466 ± 0.63.
For LRTPGTGSFAESEDLSMTEG, the amyloid nucleation score entry was “inactive”.
In the case of LRVCISGYSN, the amyloid nucleation score result is “inactive”.
With LRVMSI the figure was -0.964 ± 2.5.
As to LRWYPDSCYVSV, the amyloid nucleation score entry is “inactive”.
Regarding LRYGEFSCSNLYFTWLSFIL, the amyloid nucleation score stood at 0.749 ± 0.17.
Consider LRYVGCTKMSGAMGARS, for which the amyloid nucleation score result was “inactive”.
LRYWPVCLVQIAFDFTVTGV: the amyloid nucleation score stood at 1.97 ± 0.062.
Consider LRYWWLDLTYYL, for which the amyloid nucleation score entry is “inactive”.
Consider LSAHMMSCIKVYEFGFGCVD, for which the amyloid nucleation score result is “inactive”.
LSALHSVYLINAISFGFNQT had an amyloid nucleation score of 1.09 ± 0.13.
For LSDDMPKV, the amyloid nucleation score result is “inactive”.
Regarding LSDWKFDMCYCFFVLCQELW, the amyloid nucleation score entry was “inactive”.
The substance LSDYEDIAISFIKYRCSSLN showed an amyloid nucleation score of 1.42 ± 0.11.
In the case of LSFHP, the amyloid nucleation score entry was “inactive”.
For the substance LSFRTQALFYFVMLYGIWRA, the amyloid nucleation score result was “inactive”.
As to LSFSRDRLLHSSWGTKLMIM, the amyloid nucleation score result was “inactive”.
For LSFTHSSDTECCGER, the amyloid nucleation score entry was “inactive”.
The same measure for LSFYCFNYSNFDMVWNGKYN: 2.29 ± 0.062; for LSGFSMIFREDNSVVFV: “inactive”; for LSGVLLILSMYLDYWTNIF: “inactive”.
LSINLASSSGVSVLLKGSNL had an amyloid nucleation score of 0.87 ± 0.24.
In the case of LSKRRTIILGLVELRYSEVE, the amyloid nucleation score result was “inactive”.
LSLCRT had an amyloid nucleation score of 0.001 ± 0.32.
On to LSLFPMGCIYKHRIGLVTAK, for which the amyloid nucleation score result was “inactive”.
In the case of LSLISVSLG, the amyloid nucleation score entry is “inactive”.
As to LSLREE, the amyloid nucleation score entry was “inactive”.
For LSMHVVFVYIGFPHMDFDGS, the amyloid nucleation score entry is “inactive”.
As to LSMSAVL, the amyloid nucleation score entry was “inactive”.
As for LSMVRLNFTRIC, the amyloid nucleation score entry is “inactive”.
LSNHCARVF: the amyloid nucleation score entry was “inactive”.
LSSFNDDMNGVTFYPSISLD: the amyloid nucleation score entry is “inactive”.
Regarding LSSIAFCFN, the amyloid nucleation score was 1.15 ± 0.15.
With LSSLVSFVITQLRLLMKTER the entry was “inactive”.
As for LSSTV, the amyloid nucleation score result is “inactive”.
LSSYTVSFPKRMHRSEYFGY: the amyloid nucleation score is -0.73 ± 0.9.
Turning to LSTFMWNQAVWTPRIFWRCA, the amyloid nucleation score result was “inactive”.
Substance LSVELCTCGVRPQATYYPQG had an amyloid nucleation score of 1.31 ± 0.13.
The substance LSVGVSRCLNPLLTIGSGRE registered an amyloid nucleation score of 1.28 ± 0.096.
As for LSVLFCLDGK, the amyloid nucleation score result was “inactive”.
Take LSYSRTGASC: the amyloid nucleation score entry is “inactive”.
Take LTFTAVNWAVPVGRGT: the amyloid nucleation score result was “inactive”.
As to LTKYRGPQDVRNAFSCSNIM, the amyloid nucleation score result was “inactive”.
As to LTMSRMMYLDKMLYFLYVQW, the amyloid nucleation score entry was “inactive”.
For the substance LTRFQ, the amyloid nucleation score entry is “inactive”.
Regarding LTRLLGDLIPPVNMGARECD, the amyloid nucleation score result is “inactive”.
In turn, LTTPVTR registered an amyloid nucleation score of -0.169 ± 0.63.
The same measure for LTTQSGLMAGRKKFWDAELG: 0.902 ± 0.21; for LTVLDQSCSIYYCTSLHKS: 1.92 ± 0.087; for LTVNDDFRYKAFWVCRSMFV: “inactive”.
As for LTVRKSY, the amyloid nucleation score result is “inactive”.
The same measure for LVDLLHTMYSCYLGYKSFRG: “inactive”; for LVEHVEVCVIYCSCDCFSSV: 1.86 ± 0.059.
With LVEMNFLAVINRFICSSSLP the entry was “inactive”.
In the case of LVFASSVSSSDLTLCVGSCM, the amyloid nucleation score is -0.594 ± 2.4.
As for LVFPVKKSLVCEGV, the amyloid nucleation score entry is “inactive”.
For the substance LVFVCARQSTIEVRGKQSRM, the amyloid nucleation score was 2.06 ± 0.065.
Turning to LVGSSSFTAWPTIVSNI, the amyloid nucleation score entry was “inactive”.
As for LVGVSRRSREGDSTLSPSLG, the amyloid nucleation score result was “inactive”.
The same measure for LVGYRAQLHGVNYSMFVGIS: “inactive”.
In the case of LVKLKL, the amyloid nucleation score entry is “inactive”.
As to LVLGWWAIFGVDYGHSSYLL, the amyloid nucleation score result was “inactive”.
LVLMCIIARIAVVYKR: the amyloid nucleation score result was “inactive”.
With LVLMVSQGSYFTTI the figure was -0.474 ± 0.57; with LVMLMYVVPGFVGGDFTGDF, “inactive”.
LVNDKMLCNYHAMMRLFFFM: the amyloid nucleation score result was “inactive”.
For LVQSTRGSRSNTWACNERFV, the amyloid nucleation score result was “inactive”.
As to LVSHLIGFSCRFNPRSERFC, the amyloid nucleation score is 1.29 ± 0.1.
Consider LVTSNNMSAGRYNMCLRVLS, for which the amyloid nucleation score result was “inactive”.
